# Laboratory results reported in publication PMC8967717 (Nature, 2022).
# Substitutions are numbered along the chain they refer to.
# B1: XGV016 (antibody, V domains shown)
# VH: QVQLVQSGTEVRKPGASVTVSCKASGYTFTTYHMHWVRRAPGQGLEWMGIIDPGTGGASYPQKFRGRVTLTRDTSTNTVYMELSSLRFQDTAIYYCARAEGSSWLGWFDPWGQGTLVTVSS
# VL: QSVLTQPPSASGTPGQRVSISCSGSSSNIGTNYVYWYQQLPGTAPKLLIYKNNQRPSGVPDRFSGSKSGTSASLAISGLRSEDEADYFCASWDNGLSGSGWVFGGGTKLTV
# B2: XGV017 (antibody, V domains shown)
# VH: EVQLVESGGGLIQPGGSLRLSCAASGVTVSSNYMNWVRQAPGKGLEWVSVIYPGGTRDYSDSVKGRFTISRDSSKNTLYLQMNSLRDEDTAFYYCARDLVVYGMDVWGQGTTVTVTS
# VL: DIQLTQSPSSLSASVGDRVTITCRASQGISSYLAWYQQKPGKAPKLLIYAASTLQSGVPSRFSGSGSGTDFTLTISSLQPEDFAAYYCQLLNTYPLTFGGGTKVEIK
# B3: XGV026 (antibody, V domains shown)
# VH: EVQLVESGGGVIQPGGSLRLSCAASEIIVSSNYMNWVRQAPGKGLEWVSVIYPGGSSFYADSVKGRFTISRDNSKNTLYLQMNSLRVEDTAVYYCARDSPHRPGTIWGQGTLVVVSS
# VL: DIQMTQSPSSLSASVGDRVTITCRASQDINNYLNWYQQKPGKAPKLLIYDAFTLEAGVPSRFSGARFGTDFTFTISSLQPEDIATYYCHQCDNLPCTFGGGTKVEIK
# B4: XGV031 (antibody, V domains shown)
# VH: QVQLVQSGAEVKKPGSSVKVSCKASGGTFSNYALSWVRQAPGQGLEWMGGIIPIFGTTNYAQNFQGRVTITADESTSTAYMELSSLRSEDTAVYYCARLDGYSFGHNRYYQDGMDDWGQGTTVTVSS
# VL: DIQMTQSPSSLSASVGDRVTITCRASQAIRSDLGWYQQKPGKAPKCLIYAASTLQSGVPSRFSGSGSGTEFTLTISSLQPEDFATYYCLQQNIYPRTFGQGTKVEI
# B5: XGV042 (antibody, V domains shown)
# VH: QITLKESGPTLVKPTQTLTLTCTFSGLSMTTSGVGVGWIRQPPGKALEWLALIYWDDDKRYSPFLKSRLTITKDTSKNQVVLTMTNMDPADTGTYFCAHHTIPSIFDHWGQGTLVTVSS
# VL: QSALTQPASVSGSPGQSITISCTATSSDVGVYNYVSWYQQYPGKAPRLIIFEVSNRPSGVSSRFSGSKSGYTASLTISGLQTDDEADYYCSSYTTTSTVFGGGTKLTVL
# B6: XGV050 (antibody, V domains shown)
# VH: EVQLVESGGGLVQPGGSLRLSCAASGFTFSRYDMHWVRQAAGKGLEWVSGIGAPGDTYYAGSVKGRFTISRENAKTSLHLQMNNLRAGDTAVYYCTRGWFGENYMDVWGKGTTVTVSS
# VL: EIVLTQSPATLSLSPGERATLSCRASQSVSNHLAWFQQKPGQSPRLLIYDASNRATGIPARFSGSGSGTDFTLTISSLEPEDFAIYYCHQRSNWPTFGQGTKVEIK
# B7: XGv051 (antibody, V domains shown)
# VH: B4 VH with N63K, N107D, Q119P
# VL: B4 VL with S31N, Y87F
# B8: XGv053 (antibody, V domains shown)
# VH: B4 VH with N31S, S35T, N63K, S84T
# VL: DIQMTQSPSSLSASVGDRVTITCRASQDIRNDLGWYQQKPGKAPKCLIYAASTLQSGVPSRFSGSGSGTEFTLTISSLQPEDFATYYCLQQNIYPRTFGQGTKVEIK
# B9: XGv055 (antibody, V domains shown)
# VH: B4 VH with N31S, N63K, T76S
# VL: B8 VL with D28G
# B10: XGv074 (antibody, V domains shown)
# VH: EVQLVESGGGLIQPGGSLRLSCAASGITVSANYMSWVRQAPGKGLEWVSVIYSGGSTYYADSVKGRFTISRDHSKNTLYLQMKNLRAEDTAVYYCARDRGSSGYLGDQPYEYWGQGTLVTVSS
# VL: DIQMTQSPSSLSASVGDRVTITCQASQDINKYLNWYQQKPGKAPKLLIYGASNLETGVPSRFSGSGSGTDFTFTISSLRPEDIATYYCQQYDPLPVTFGGGTRVEIK
# B11: XGv177 (antibody, V domains shown)
# VH: EVQLVESGGGLIQPGGSLRLSCAASGVTVSSNYMTWVRQAPGKGLDWVSVIYSGGSTFYADSVKGRFTISRDNSKNTLYLQMNSLRVEDTAVYYCARDLVDYGLDVWGQGTTVTVSS
# VL: DIQLTQSPSFLSASVGDRVTITCRASQGIASYLAWYQQKPGKPPKLLIYAASTLQSGVPTRFSGSGSGTEFTLTITSLQPEDFATYYCQLLSRHPPTFGGGTKVEI
# B12: XGv261 (antibody, V domains shown)
# VH: QLQLQESGPGLVRPSETLSLTCTVSGGSITDSGYYWGWIRQPPGKGLEWIGNIFYSGSTYYNPSLKSRVTISVDTSKNQFSLRLSSVTAADTAVYYCAREIGIIDYWGQGSLVIVSS
# VL: DIQMTQSPSSLSASVGDRVTITCRASQGISNSLAWYQQKPGKAPKLLLYGASTLESGVPSRFSGSGSGTHFTLTISSLQPEDFATYFCQQYYSSPPRTFGGGTKVEI
# B13: XGv264 (antibody, V domains shown)
# VH: QITLKESGPTLVKPTQTLTLTCAFSGFSLNTGGAGVGWIRQPPGKALEWLALIYWDGDKRYNPSLKSRLAIIMDTSKNRVVLTMTNMDPVDTATYYCAHHKIEYIFDYWGQGTLVAVSS
# VL: QSALTQPASVSGSPGQSITVSCTGTSSDLGNFQYVSWYQHHPGKAPKLLIYEVSHRPSGVSNRFSGSKSGNTASLTISGLQAEDEADYYCCSYTTTTIPVAFGGGTRLTVL
# B14: XGv266 (antibody, V domains shown)
# VH: QITLKESGPTLVRPTQTLTLTCTFSGLSLSAPAEGVGWIRQPPGKALEWLALIYWEGDQRYSPSLKSRLTITKDTSKKQVVLTMTNMDPVDTATYYCARHSVATIFDFWGQGTLVTVSS
# VL: QSALTQPASVSGSPGQSITISCTGTSSDVGCCNYVSWYQHHPGKAPKLMIYEVTNRPSGISDRFSGSKSGNTASLTISGLQAEDEAAYYCSSYTTSTARVVFGGGTKLTVL
# B15: XGv285 (antibody, V domains shown)
# VH: QVQLVQSGAEVKKPGASMKVSCKASGYTFISYYMHWVRQAPGQELEWMGIINPSGGSTSYAQKFQGRVTMTRDTSTSTVYMELRSLRSEDTAVYYCARAEGSSWLGWFDPWGQGTLVTVSS
# VL: QSVLTQPPSASGTPGQRVTISCSGSSSNIGSNLVYWYQHLPGTAPKLLIYKNTQRPSGVPDRFSGSKSGTSASLAISGLRSDDEGDYYCAAWDDGLSGSGWVFGGGTKVT
# Molecular target: SARS-CoV-2 wild-type spike receptor-binding domain (SARS-CoV-2, WT (MN908947), UniProt P0DTC2)
row,Binder,binding result
1,B1,binds
2,B2,binds
3,B3,binds
4,B4,binds
5,B5,binds
6,B6,binds
7,B7,binds
8,B8,binds
9,B9,binds
10,B10,binds
11,B11,binds
12,B12,binds
13,B13,binds
14,B14,binds
15,B15,binds

# Molecular target: SARS-CoV-2 wild-type spike (S) protein (SARS-CoV-2, WT (MN908947), UniProt P0DTC2)
row,Binder,binding result
1,B1,binds
2,B2,binds
3,B3,binds
4,B4,binds
5,B5,binds
6,B6,binds
7,B7,binds
8,B8,binds
9,B9,binds
10,B10,binds
11,B11,binds
12,B12,binds
13,B13,binds
14,B14,binds
15,B15,binds
